From patent US20200297818A1 (ZEALAND PHARMA A S, published 2020) come the findings set out here.

Test [1] deals with T1, human GLP-2 receptor (hGLP2-R) (human, UniProt O95838 1-553).
T1 sequence (looked up): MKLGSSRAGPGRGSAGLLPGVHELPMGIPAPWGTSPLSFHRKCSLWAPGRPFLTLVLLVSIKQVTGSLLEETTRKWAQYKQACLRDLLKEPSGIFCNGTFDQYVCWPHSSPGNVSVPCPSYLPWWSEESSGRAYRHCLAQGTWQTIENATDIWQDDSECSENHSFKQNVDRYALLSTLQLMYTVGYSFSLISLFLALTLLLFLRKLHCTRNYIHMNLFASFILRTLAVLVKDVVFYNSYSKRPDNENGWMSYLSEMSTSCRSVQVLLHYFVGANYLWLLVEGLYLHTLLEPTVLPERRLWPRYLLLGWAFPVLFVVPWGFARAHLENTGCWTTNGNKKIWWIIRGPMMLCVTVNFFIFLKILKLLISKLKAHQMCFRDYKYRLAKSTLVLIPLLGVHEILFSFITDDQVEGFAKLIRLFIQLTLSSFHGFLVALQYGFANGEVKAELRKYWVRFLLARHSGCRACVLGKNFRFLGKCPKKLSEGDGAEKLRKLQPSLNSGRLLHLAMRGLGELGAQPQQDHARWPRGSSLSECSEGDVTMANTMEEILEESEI
Briefly: cell-based or functional assay.

The target of test [2] is human glucagon-like peptide 1 receptor (GLP-1 R) (human, UniProt P43220 24-463). In words: cell-based or functional assay.

B1: Compound 7 (peptide)
peptide: HXEGTFSSELATILDGXAARDFIAWLIEHKITD
HELM: PEPTIDE1{H.[Aib].E.G.T.F.S.S.E.L.A.T.I.L.D.G.K.A.A.R.D.F.I.A.W.L.I.E.H.K.I.T.D}|PEPTIDE2{[O=C(O)CCCCCCCCCCCCCCCCC(=O)[*:2]].[gGlu]}$PEPTIDE1,PEPTIDE2,17:R3-2:R2$$$V2.0
SMILES: CC[C@H](C)[C@H](NC(=O)[C@H](Cc1ccccc1)NC(=O)[C@H](CC(=O)O)NC(=O)[C@H](CCCNC(=N)N)NC(=O)[C@H](C)NC(=O)[C@H](C)NC(=O)[C@H](CCCCNC(=O)CC[C@H](NC(=O)CCCCCCCCCCCCCCCCC(=O)O)C(=O)O)NC(=O)CNC(=O)[C@H](CC(=O)O)NC(=O)[C@H](CC(C)C)NC(=O)[C@@H](NC(=O)[C@@H](NC(=O)[C@H](C)NC(=O)[C@H](CC(C)C)NC(=O)[C@H](CCC(=O)O)NC(=O)[C@H](CO)NC(=O)[C@H](CO)NC(=O)[C@H](Cc1ccccc1)NC(=O)[C@@H](NC(=O)CNC(=O)[C@H](CCC(=O)O)NC(=O)C(C)(C)NC(=O)[C@@H](N)Cc1c[nH]cn1)[C@@H](C)O)[C@@H](C)O)[C@@H](C)CC)C(=O)N[C@@H](C)C(=O)N[C@@H](Cc1c[nH]c2ccccc12)C(=O)N[C@@H](CC(C)C)C(=O)N[C@H](C(=O)N[C@@H](CCC(=O)O)C(=O)N[C@@H](Cc1c[nH]cn1)C(=O)N[C@@H](CCCCN)C(=O)N[C@H](C(=O)N[C@H](C(=O)N[C@@H](CC(=O)O)C(=O)O)[C@@H](C)O)[C@@H](C)CC)[C@@H](C)CC
Regarding B1, the “EC50 GLP-2 (nM); cAMP response” value in test [1] is 0.019 nM. The “EC50 GLP-1 (nM); cAMP response” value in test [2] worked out at 0.92 nM.

B2: Compound 10 (peptide)
peptide: HXEGTFSSELATILDXLAARDFIAWLIEHKITD
HELM: PEPTIDE1{H.[Aib].E.G.T.F.S.S.E.L.A.T.I.L.D.K.L.A.A.R.D.F.I.A.W.L.I.E.H.K.I.T.D}|PEPTIDE2{[O=C(O)CCCCCCCCCCCCCCCCC(=O)[*:2]].[gGlu]}$PEPTIDE1,PEPTIDE2,16:R3-2:R2$$$V2.0
SMILES: CC[C@H](C)[C@H](NC(=O)[C@H](Cc1ccccc1)NC(=O)[C@H](CC(=O)O)NC(=O)[C@H](CCCNC(=N)N)NC(=O)[C@H](C)NC(=O)[C@H](C)NC(=O)[C@H](CC(C)C)NC(=O)[C@H](CCCCNC(=O)CC[C@H](NC(=O)CCCCCCCCCCCCCCCCC(=O)O)C(=O)O)NC(=O)[C@H](CC(=O)O)NC(=O)[C@H](CC(C)C)NC(=O)[C@@H](NC(=O)[C@@H](NC(=O)[C@H](C)NC(=O)[C@H](CC(C)C)NC(=O)[C@H](CCC(=O)O)NC(=O)[C@H](CO)NC(=O)[C@H](CO)NC(=O)[C@H](Cc1ccccc1)NC(=O)[C@@H](NC(=O)CNC(=O)[C@H](CCC(=O)O)NC(=O)C(C)(C)NC(=O)[C@@H](N)Cc1c[nH]cn1)[C@@H](C)O)[C@@H](C)O)[C@@H](C)CC)C(=O)N[C@@H](C)C(=O)N[C@@H](Cc1c[nH]c2ccccc12)C(=O)N[C@@H](CC(C)C)C(=O)N[C@H](C(=O)N[C@@H](CCC(=O)O)C(=O)N[C@@H](Cc1c[nH]cn1)C(=O)N[C@@H](CCCCN)C(=O)N[C@H](C(=O)N[C@H](C(=O)N[C@@H](CC(=O)O)C(=O)O)[C@@H](C)O)[C@@H](C)CC)[C@@H](C)CC
B2: the “EC50 GLP-2 (nM); cAMP response” value in test [1] is 0.087 nM. The “EC50 GLP-1 (nM); cAMP response” value in test [2] was 1.8 nM.

B3: Compound 11 (peptide)
peptide: HXEGSFTSELATILDXLAARDFIAWLIEHKITD
HELM: PEPTIDE1{H.[Aib].E.G.S.F.T.S.E.L.A.T.I.L.D.K.L.A.A.R.D.F.I.A.W.L.I.E.H.K.I.T.D}|PEPTIDE2{[O=C(O)CCCCCCCCCCCCCCCCC(=O)[*:2]].[gGlu]}$PEPTIDE1,PEPTIDE2,16:R3-2:R2$$$V2.0
SMILES: CC[C@H](C)[C@H](NC(=O)[C@H](Cc1ccccc1)NC(=O)[C@H](CC(=O)O)NC(=O)[C@H](CCCNC(=N)N)NC(=O)[C@H](C)NC(=O)[C@H](C)NC(=O)[C@H](CC(C)C)NC(=O)[C@H](CCCCNC(=O)CC[C@H](NC(=O)CCCCCCCCCCCCCCCCC(=O)O)C(=O)O)NC(=O)[C@H](CC(=O)O)NC(=O)[C@H](CC(C)C)NC(=O)[C@@H](NC(=O)[C@@H](NC(=O)[C@H](C)NC(=O)[C@H](CC(C)C)NC(=O)[C@H](CCC(=O)O)NC(=O)[C@H](CO)NC(=O)[C@@H](NC(=O)[C@H](Cc1ccccc1)NC(=O)[C@H](CO)NC(=O)CNC(=O)[C@H](CCC(=O)O)NC(=O)C(C)(C)NC(=O)[C@@H](N)Cc1c[nH]cn1)[C@@H](C)O)[C@@H](C)O)[C@@H](C)CC)C(=O)N[C@@H](C)C(=O)N[C@@H](Cc1c[nH]c2ccccc12)C(=O)N[C@@H](CC(C)C)C(=O)N[C@H](C(=O)N[C@@H](CCC(=O)O)C(=O)N[C@@H](Cc1c[nH]cn1)C(=O)N[C@@H](CCCCN)C(=O)N[C@H](C(=O)N[C@H](C(=O)N[C@@H](CC(=O)O)C(=O)O)[C@@H](C)O)[C@@H](C)CC)[C@@H](C)CC
B3: in test [1], the “EC50 GLP-2 (nM); cAMP response” value worked out at 0.085 nM. The “EC50 GLP-1 (nM); cAMP response” value in test [2] is 0.32 nM.

B4: Compound 8 (peptide)
peptide: HXEGSFTSELATILDGXAARDFIAWLIEHKITD
HELM: PEPTIDE1{H.[Aib].E.G.S.F.T.S.E.L.A.T.I.L.D.G.K.A.A.R.D.F.I.A.W.L.I.E.H.K.I.T.D}|PEPTIDE2{[O=C(O)CCCCCCCCCCCCCCCCC(=O)[*:2]].[gGlu]}$PEPTIDE1,PEPTIDE2,17:R3-2:R2$$$V2.0
SMILES: CC[C@H](C)[C@H](NC(=O)[C@H](Cc1ccccc1)NC(=O)[C@H](CC(=O)O)NC(=O)[C@H](CCCNC(=N)N)NC(=O)[C@H](C)NC(=O)[C@H](C)NC(=O)[C@H](CCCCNC(=O)CC[C@H](NC(=O)CCCCCCCCCCCCCCCCC(=O)O)C(=O)O)NC(=O)CNC(=O)[C@H](CC(=O)O)NC(=O)[C@H](CC(C)C)NC(=O)[C@@H](NC(=O)[C@@H](NC(=O)[C@H](C)NC(=O)[C@H](CC(C)C)NC(=O)[C@H](CCC(=O)O)NC(=O)[C@H](CO)NC(=O)[C@@H](NC(=O)[C@H](Cc1ccccc1)NC(=O)[C@H](CO)NC(=O)CNC(=O)[C@H](CCC(=O)O)NC(=O)C(C)(C)NC(=O)[C@@H](N)Cc1c[nH]cn1)[C@@H](C)O)[C@@H](C)O)[C@@H](C)CC)C(=O)N[C@@H](C)C(=O)N[C@@H](Cc1c[nH]c2ccccc12)C(=O)N[C@@H](CC(C)C)C(=O)N[C@H](C(=O)N[C@@H](CCC(=O)O)C(=O)N[C@@H](Cc1c[nH]cn1)C(=O)N[C@@H](CCCCN)C(=O)N[C@H](C(=O)N[C@H](C(=O)N[C@@H](CC(=O)O)C(=O)O)[C@@H](C)O)[C@@H](C)CC)[C@@H](C)CC
In the case of B4, the “EC50 GLP-2 (nM); cAMP response” value in test [1] is 0.039 nM. Also, the “EC50 GLP-1 (nM); cAMP response” value in test [2] came to 0.22 nM.

B5: Compound 9 (peptide)
peptide: HXEGTFTSELATILDGXAARDFIAWLIEHKITD
HELM: PEPTIDE1{H.[Aib].E.G.T.F.T.S.E.L.A.T.I.L.D.G.K.A.A.R.D.F.I.A.W.L.I.E.H.K.I.T.D}|PEPTIDE2{[O=C(O)CCCCCCCCCCCCCCCCC(=O)[*:2]].[gGlu]}$PEPTIDE1,PEPTIDE2,17:R3-2:R2$$$V2.0
SMILES: CC[C@H](C)[C@H](NC(=O)[C@H](Cc1ccccc1)NC(=O)[C@H](CC(=O)O)NC(=O)[C@H](CCCNC(=N)N)NC(=O)[C@H](C)NC(=O)[C@H](C)NC(=O)[C@H](CCCCNC(=O)CC[C@H](NC(=O)CCCCCCCCCCCCCCCCC(=O)O)C(=O)O)NC(=O)CNC(=O)[C@H](CC(=O)O)NC(=O)[C@H](CC(C)C)NC(=O)[C@@H](NC(=O)[C@@H](NC(=O)[C@H](C)NC(=O)[C@H](CC(C)C)NC(=O)[C@H](CCC(=O)O)NC(=O)[C@H](CO)NC(=O)[C@@H](NC(=O)[C@H](Cc1ccccc1)NC(=O)[C@@H](NC(=O)CNC(=O)[C@H](CCC(=O)O)NC(=O)C(C)(C)NC(=O)[C@@H](N)Cc1c[nH]cn1)[C@@H](C)O)[C@@H](C)O)[C@@H](C)O)[C@@H](C)CC)C(=O)N[C@@H](C)C(=O)N[C@@H](Cc1c[nH]c2ccccc12)C(=O)N[C@@H](CC(C)C)C(=O)N[C@H](C(=O)N[C@@H](CCC(=O)O)C(=O)N[C@@H](Cc1c[nH]cn1)C(=O)N[C@@H](CCCCN)C(=O)N[C@H](C(=O)N[C@H](C(=O)N[C@@H](CC(=O)O)C(=O)O)[C@@H](C)O)[C@@H](C)CC)[C@@H](C)CC
Consider B5, for which the “EC50 GLP-2 (nM); cAMP response” value in test [1] turned out to be 0.056 nM. The “EC50 GLP-1 (nM); cAMP response” value in test [2] was found to be 0.056 nM.
